The text below walks through data of PMC9470112 (2020).

T1: EBV LMP2 (latent membrane protein 2) peptide on HLA-A*01:01 (human)
T1 peptide: ESEERPPTPY

B1: TCR-B1 (TCR)
alpha TRAV12 TRAJ3 CDR3: CVVTGYSSASKIIF
beta TRBV6-3 TRBJ2-1 CDR3: CASSSEGQFNEQFF
B2: TCR-C1 (TCR)
alpha TRAV30 TRAJ45 CDR3: CGTGSGGGADGLTF
beta TRBV6-3 TRBJ2-1 CDR3: CASSPEGVFNEQFF
B3: EBV-LMP2^ESE-specific TCR C^2 from donor C (TCR)
alpha TRAV30 TRAJ45 CDR3: CGTEDGRGGADGLTF
beta TRBV6-3 TRBJ2-1 CDR3: CASSYGIYEQFF
B4: EBV-LMP2^ESE-specific TCR from donor E (TCR)
alpha TRAV26 TRAJ23 CDR3: CIVSGGKLIF
beta TRBV12-3/4 TRBJ2-5 CDR3: CASSSSWTSGSGETQYF
B5: EBV-LMP2^ESE-specific TCR from donor A (TCR)
alpha TRAV12 TRAJ3 CDR3: CVVTGYSSASKIIF
beta TRBV6-3 TRBJ2-1 CDR3: CASSWEGQYNEQFF

The target in this assay is T1, EBV LMP2 (latent membrane protein 2) …. In words: multimer staining.
As to B1, the binding result is listed as “recognises”.
As for B2, the binding result was “recognises”.
The result for B3 reads “recognises”; that for B4, “recognises”.
The result for B5 reads “recognises”.
